Measured values published in patent publication US20180245061A1, “Modified Heterocyclase” (THE UNIVERSITY COURT OF THE UNIVERSITY OF ABERDEEN, priority 2014, published 2018).
Substitutions are numbered along the chain they refer to. Names and notes keep the numbering of the source. Where no end group is shown, it is not given here.

Tests used:
[1] = system: LynD; assay: Trans activation of LynD by exogenous leader peptide (turnover of test peptide ITACITFCAYDG); assay type: biochemical, Lyngbya sp.; conditions: for acceleration of turnover of the test peptide by LynD: 5.5 μM leader peptide in trans, 5 μM LynD, 100 μM ITACITFCAYDG; for heterocycles observed in test peptide with LynD plus leader in trans: overnight incubation
Protocol: (§1) For all heterocyclization reactions, […] PatE′ (and variants,) was incubated with 2 μM enzyme in 150 mM NaCl, 10 mM HEPES pH 7.4, 1 mM TCEP, 5 mM ATP and 5 mM MgCl2 for 16 h at 37° C. Samples were analyzed by ESI or MALDI MS (LCT, Micromass or 4800 MALDI TOF/TOF Analyzer, ABSciex). For cis trans activation studies, 100 μM ITACITFCAYDG synthetic test peptide (Peptide Protein Research Ltd) was reacted with 5 μM heterocyclase enzyme in the presence and absence of 5.5 μM LAELSEEAL synthetic peptide, or 5.5 μM full-length PatE′4 leader peptide. The reaction was carried out in 150 mM NaCl, 10 mM HEPES pH 7.4, 1 mM TCEP, 5 mM ATP and 5 mM MgCl2 for 16 h at 37° C. and analyzed as above. Synthetic peptides were purchased from Peptide Protein Research Ltd.
To assess the relative rates of heterocyclization under various conditions, heterocyclization reactions were monitored at regular intervals using MALDI TOF MS. In each case, reactions of PatE′ or ITACITFCAYDG synthetic peptide were prepared as described and incubated at 37° C. prior to addition of LynD allowing a 0 time-point to be recorded. Time points for each reaction were recorded as follows: For PatE′ with LynD (standard conditions), PatE′ with LynD in the presence of α-β-methelene ATP, and ITACITFCAYDG with LynD fusion, the reaction was monitored after 1, 5, 10, 15, 20, 30, 45, 60, 90, 120 and 180 minutes; For ITACITFCAYDG with LynD in the absence, and presence of either minimal leader LAELSEEAL peptide, or full length PatE′4 leader peptide, the reaction was monitored after 15, 30, 60, 120, 240 and 1440 minutes. Reactions were set up in triplicate, and each sample was analyzed by MALDI TOF MS in triplicate (9 spectra recorded in total for each reaction at each time point). For each time point, the total ion count for each species (0, 1 and 2 heterocycles) was recorded, averaged and the percentage of each species was calculated. The rate of each reaction relative to the wild-type reaction (PatE′+LynD) was determined. LC-MS of reaction mixtures was performed on a Waters LC-MS system (LCT mass spectrometer and 2795 HPLC) using a Waters MassPrep column (2.1×10 mm). Solvent B was 0.1% formic acid and Solvent A was MeCN containing 0.1% formic acid. Gradient 0-0.5 min 98% B, 0.5-2.5 min linear to 2% B, 2.5-4.5 min 2% B, 4.5-4.6 min linear to 98% B, […] 98% B at 0.05 ml min−1. The following conditions were used on the mass spectrometer: ESI +ve, capillary voltage 3.5 kV, cone voltage 40 V, mass range 500-2500 m/z, RF lens 500. The spectra were combined across the eluted protein peak and the charged ion series processed using Water's MaxEnt algorithm to give protein mass, using peak width at half height on the strongest peak in the ion envelope. […]

[2] = system: ITACITFCAYDG synthetic test peptide; assay: Heterocyclization of leaderless core/test peptide ITACITFCAYDG (LCMS, MALDI TOF MS time course); assay type: biochemical; conditions: for heterocycles formed in core peptide ITACITFCAYDG: no leader
Protocol: After 16 h core peptide incubated with either TruD or LynD only 1 heterocycle is formed. In contrast when incubated with LynD fusion, the heterocyclization reaction is nearly complete—the sample containing predominantly 2 heterocycles after just 2 h. PatE′ and LynD reaction after 2 h is shown as a reference.
as §1, with “Synthetic peptides were purchased from Peptide Protein Research Ltd.” left out
To assess the relative rates of heterocyclization under various conditions, heterocyclization reactions were monitored at regular intervals using MALDI TOF MS. In each case, reactions of PatE′ or ITACITFCAYDG synthetic peptide were prepared as described and incubated at 37° C. prior to addition of LynD allowing a 0 time-point to be recorded. Time points for each reaction were recorded as follows: For PatE′ with LynD (standard conditions), PatE′ with LynD in the presence of α-β-methelene ATP, and ITACITFCAYDG with LynD fusion, the reaction was monitored after 1, 5, 10, 15, 20, 30, 45, 60, 90, 120 and 180 minutes; For ITACITFCAYDG with LynD in the absence, and presence of either minimal leader LAELSEEAL peptide, or full length PatE′4 leader peptide, the reaction was monitored after 15, 30, 60, 120, 240 and 1440 minutes. Reactions were set up in triplicate, and each sample was analyzed by MALDI TOF MS in triplicate (9 spectra recorded in total for each reaction at each time point). […] The rate of each reaction relative to the wild-type reaction (PatE′+LynD) was determined. […]

[3] = system: PatE′; assay: Heterocyclization reaction with PatE′, MS analysis; assay type: biochemical; conditions: PatE′ with 2 μM enzyme, 5 mM ATP, 5 mM MgCl2, 16 h at 37° C.; TABLE 1
PatE′, sequence (as listed by the source): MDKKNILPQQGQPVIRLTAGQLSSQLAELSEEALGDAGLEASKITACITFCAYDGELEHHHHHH
Protocol: as §1

For “full-length PatE leader: full-length leader peptide from trypsin digestion of quadruple mutant PatE′4 (D2Y, K3E, K4E, R16E)”, the “acceleration of turnover of the test peptide by LynD” value [1] was 6.7 fold and the “heterocycles observed in test peptide with LynD plus leader in trans” value [1] was “both heterocycles are observed”.

For “LAELSEEAL (ends and bridges not checked) [minimal leader, residues 26 to 34 of PatE]”, the “acceleration of turnover of the test peptide by LynD” value [1] was 5.0 fold and the “heterocycles observed in test peptide with LynD plus leader in trans” value [1] was “both heterocycles are observed”.

B1: TruD: cyanobactin heterocyclase from the trunkamide pathway, SEQ ID NO: 3 (protein)
chain: MQPTALQIKPHFHVEIIEPKQVYLLGEQGNHALTGQLYCQILPFLNGEYTREQIVEKLDGQVPEEYIDFVLSRLVEKGYLTEVAPELSLEVAAFWSELGIAPSVVAEGLKQPVTVTTAGKGIREGIVANLAAALEEAGIQVSDPRDPKAPKAGDSTAQLQVVLTDDYLQPELAAINKEALERQQPWLLVKPVGSILWLGPLFVPGETGCWHCLAQRLQGNREVEASVLQQKRALQERNGQNKNGAVSCLPTARATLPSTLQTGLQWAATEIAKWMVKRHLNAIAPGTARFPTLAGKIFTFNQTTLELKAHPLSRRPQCPTCGDRETLQRRGFEPLKLESRPKHFTSDGGHRAMTPEQTVQKYQHLIGPITGVVTELVRISDPANPLVHTYRAGHSFGSATSLRGLRNVLRHKSSGKGKTDSQSRASGLCEAIERYSGIFQGDEPRKRATLAELGDLAIHPEQCLHFSDRQYDNRESSNERATVTHDWIPQRFDASKAHDWTPVWSLTEQTHKYLPTALCYYRYPFPPEHRFCRSDSNGNAAGNTLEEAILQGFMELVERDSVCLWWYNRVSRPAVDLSSFDEPYFLQLQQFYQTQNRDLWVLDLTADLGIPAFVGVSNRKAGSSERIILGFGAHLDPTVAILRALTEVNQIGLELDKVSDESLKNDATDWLVNATLAASPYLVADASQPLKTAKDYPRRWSDDIYTDVMTCVEIAKQAGLETLVLDQTRPDIGLNVVKVIVPGMRFWSRFGSGRLYDVPVKLGWREQPLAEAQMNPTPMPF
modifications: Prochloron sp. 06037A
With B1 the “heterocycles formed in core peptide ITACITFCAYDG” value ([2]; after 16 h / overnight, 5 μM enzyme, 100 μM peptide, 37° C.) was 1.

B2: LynD fusion: residues 21-38 of the PatE leader and an eleven residue long linker added to the N-terminus of LynD (SEQ ID NO: 39) (protein)
chain: MSHHHHHHDYDENLYFQGSQLSSQLAELSEEALGDAGAGAGAGAGAGAMQSTPLLQIQPHFHVEVIEPKQVYLLGEQANHALTGQLYCQILPLLNGQYTLEQIVEKLDGEVPPEYIDYVLERLAEKGYLTEAAPELSSEVAAFWSELGIAPPVAAEALRQPVTLTPVGNISEVTVAALTTALRDIGISVQTPTEAGSPTALNVVLTDDYLQPELAKINKQALESQQTWLLVKPVGSVLWLGPVFVPGKTGCWDCLAHRLRGNREVEASVLRQKQAQQQRNGQSGSVIGCLPTARATLPSTLQTGLQFAATEIAKWIVKYHVNATAPGTVFFPTLDGKIITLNHSILDLKSHILIKRSQCPTCGDPKILQHRGFEPLKLESRPKQFTSDGGHRGTTPEQTVQKYQHLISPVTGVVTELVRITDPANPLVHTYRAGHSFGSATSLRGLRNTLKHKSSGKGKTDSQSKASGLCEAVERYSGIFQGDEPRKRATLAELGDLAIHPEQCLCFSDGQYANRETLNEQATVAHDWIPQRFDASQAIEWTPVWSLTEQTHKYLPTALCYYHYPLPPEHRFARGDSNGNAAGNTLEEAILQGFMELVERDGVALWWYNRLRRPAVDLGSFNEPYFVQLQQFYRENDRDLWVLDLTADLGIPAFAGVSNRKTGSSERLILGFGAHLDPTIAILRAVTEVNQIGLELDKVPDENLKSDATDWLITEKLADHPYLLPDTTQPLKTAQDYPKRWSDDIYTDVMTCVNIAQQAGLETLVIDQTRPDIGLNVVKVTVPGMRHFWSRFGEGRLYDVPVKLGWLDEPLTEAQMNPTPMPF
modifications: Modified heterocyclase
B2 was tested, and the “heterocycles formed in core peptide ITACITFCAYDG” value ([2]; after 2 h, LCMS) was 2 and the “rate of processing both cysteines in the test peptide” value ([2]; compared with native LynD on full length PatE′ substrate) was “comparable to the full length PatE′ substrate”.

B3: LynD K409E: LynD point mutant K409E (protein)
chain: MQSTPLLQIQPHFHVEVIEPKQVYLLGEQANHALTGQLYCQILPLLNGQYTLEQIVEKLDGEVPPEYIDYVLERLAEKGYLTEAAPELSSEVAAFWSELGIAPPVAAEALRQPVTLTPVGNISEVTVAALTTALRDIGISVQTPTEAGSPTALNVVLTDDYLQPELAKINKQALESQQTWLLVKPVGSVLWLGPVFVPGKTGCWDCLAHRLRGNREVEASVLRQKQAQQQRNGQSGSVIGCLPTARATLPSTLQTGLQFAATEIAKWIVKYHVNATAPGTVFFPTLDGKIITLNHSILDLKSHILIKRSQCPTCGDPKILQHRGFEPLKLESRPKQFTSDGGHRGTTPEQTVQKYQHLISPVTGVVTELVRITDPANPLVHTYRAGHSFGSATSLRGLRNTLKHKSSGEGKTDSQSKASGLCEAVERYSGIFQGDEPRKRATLAELGDLAIHPEQCLCFSDGQYANRETLNEQATVAHDWIPQRFDASQAIEWTPVWSLTEQTHKYLPTALCYYHYPLPPEHRFARGDSNGNAAGNTLEEAILQGFMELVERDGVALWWYNRLRRPAVDLGSFNEPYFVQLQQFYRENDRDLWVLDLTADLGIPAFAGVSNRKTGSSERLILGFGAHLDPTIAILRAVTEVNQIGLELDKVPDENLKSDATDWLITEKLADHPYLLPDTTQPLKTAQDYPKRWSDDIYTDVMTCVNIAQQAGLETLVIDQTRPDIGLNVVKVTVPGMRHFWSRFGEGRLYDVPVKLGWLDEPLTEAQMNPTPMPF
In the case of B3, the “No. of heterocycles (PatE′)” value [3] is reported as 2.

B4: LynD E423R: LynD point mutant E423R (protein)
chain: B3 chain with E409K, E423R
For B4, the “No. of heterocycles (PatE′)” value [3] was 0.

B5: LynD K409A: LynD point mutant K409A (protein)
chain: B3 chain with E409A
With B5 the “No. of heterocycles (PatE′)” value [3] was 1.
